This series addresses wt MeCP2 MBD (Homo sapiens, UniProt P51608 90-181). The series is described as follows: EMSA; EMSA; unlabeled oligo-dA/dT duplex (o2968/o2969) listed as binding trap; buffer, salt, pH and temperature not shown in the material. The conditions noted are these: protein: recombinant, tags: N-terminal FLAG-MBP-FactorXa-TEV, C-terminal 7xHis, label: 6-FAM 5' strand 1. (In general: A gel shift assay detects complexes by their altered migration in electrophoresis.)

What is called Kd is the free concentration of one partner at which half of the binding sites on the other are occupied at equilibrium, for simple one-to-one binding.

Sequence of wt MeCP2 MBD (P51608 90-181): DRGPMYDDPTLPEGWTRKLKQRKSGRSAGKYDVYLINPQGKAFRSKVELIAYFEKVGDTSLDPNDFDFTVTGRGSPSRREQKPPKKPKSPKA

B1: hmC/C oligo-dA/dT (EMSA) (dsDNA)
DNA 1: AAAAAAAAAAACGAAAAAAAAAAA
DNA 2: TTTTTTTTTTTCGTTTTTTTTTTT
modifications: 5hmC at C12 of strand 1 (o3115); strand 2 unmodified (o2904)
Consider B1, for which, where the note is “blunt”, the equilibrium dissociation constant (Kd) is 211 ± 19.5 nM.

B2: hmC/hmC oligo-dA/dT (EMSA) (dsDNA)
DNA 1: AAAAAAAAAAACGAAAAAAAAAAA
DNA 2: TTTTTTTTTTTCGTTTTTTTTTTT
modifications: 5hmC at C12 of strand 1 (o3115); 5hmC at C12 of strand 2 (o3112)
Regarding B2, the Kd turned out to be 198 ± 39.1 nM.

B3: C/mC oligo-dA/dT (EMSA) (dsDNA)
DNA 1: AAAAAAAAAAACGAAAAAAAAAAA
DNA 2: TTTTTTTTTTTCGTTTTTTTTTTT
modifications: 5mC at C12 of strand 1 (o2967); strand 2 unmodified (o2904)
For B3, for the setting “blunt”, the dissociation constant Kd came to 43.8 ± 3.64 nM.

B4: mC/mC oligo-dA/dT (EMSA) (dsDNA)
DNA 1: AAAAAAAAAAACGAAAAAAAAAAA
DNA 2: TTTTTTTTTTTCGTTTTTTTTTTT
modifications: 5mC at C12 of strand 1 (o2967); 5mC at C12 of strand 2 (o2909)
On to B4, for which the Kd (blunt) was 3.9 ± 0.636 nM.

B5: hmC/mC oligo-dA/dT (EMSA) (dsDNA)
DNA 1: AAAAAAAAAAACGAAAAAAAAAAA
DNA 2: TTTTTTTTTTTCGTTTTTTTTTTT
modifications: 5hmC at C12 of strand 1 (o3115); 5mC at C12 of strand 2 (o2909)
For B5, the Kd (blunt) was found to be 47.4 ± 12.4 nM.

Values taken from publication PMC8874921, “Evolved DNA Duplex Readers for Strand-Asymmetrically Modified 5-Hydroxymethylcytosine/5-Methylcytosine CpG Dyads”.
